In assay [1] the target is human serum albumin (human) (UniProt P02768). The assay can be described thus: sandwich ELISA, HSA-coated plate, control antibody at 1 µM, anti-FITC detection. In general terms: In an ELISA, binding on a coated surface is turned into a signal by an enzyme label.
Assay [2] has as its target interleukin-1 type 1 receptor (UniProt P14778). The assay can be described thus: cell-based or functional assay.
Sequence of UniProt P14778 (P14778 18-569 limits assumed): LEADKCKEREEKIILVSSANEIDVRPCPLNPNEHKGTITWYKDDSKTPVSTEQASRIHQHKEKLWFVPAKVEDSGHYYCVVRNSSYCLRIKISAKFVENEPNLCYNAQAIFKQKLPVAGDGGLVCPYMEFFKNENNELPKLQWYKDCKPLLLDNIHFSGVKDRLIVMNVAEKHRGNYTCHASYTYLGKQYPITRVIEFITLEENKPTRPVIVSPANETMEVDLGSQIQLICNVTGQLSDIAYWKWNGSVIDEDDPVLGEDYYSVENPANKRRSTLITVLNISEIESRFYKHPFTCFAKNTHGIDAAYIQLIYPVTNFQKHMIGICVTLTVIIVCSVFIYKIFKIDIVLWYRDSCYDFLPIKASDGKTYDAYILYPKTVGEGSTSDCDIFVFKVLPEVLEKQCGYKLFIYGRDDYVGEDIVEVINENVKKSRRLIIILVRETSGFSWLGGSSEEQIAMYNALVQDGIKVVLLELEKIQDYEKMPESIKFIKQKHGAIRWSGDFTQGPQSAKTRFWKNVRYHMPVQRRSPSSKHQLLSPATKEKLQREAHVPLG

“FITC coupled antibody (negative control)” showed an OD600 in assay [1] of 0.049 OD600.
“recombinant human IL-1ra (from UniProt P18510 26-177) (ligand)”: the ND50 (neutralizing dose 50) of IL-1-induced IL-8 secretion by MRC-5 cells in assay [2] was found to be 0.5 nM.

For the origin of these results see patent US20090214534A1.
